Results from the supplement of paper PMC9170038.

Tested on: K4 kissing-loop RNA reporter
Assay: apparent KD of K4 kissing-loop reporter; higher = weaker reporter binding
Conditions: Eterna round: R107
Description: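 RNA-MaP round R107: designed RNA switches with theophylline, tryptophan, arginine or FMN aptamers are transcribed on-chip within common flanks. They are titrated with a labelled K4 kissing-loop RNA reporter in RNA-MaP buffer (100 mM Tris pH 7.5, 80 mM KCl, 4 mM MgCl2), without ligand or with the indicated ligand. Median apparent KD per design.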

[1] = input ligand: theophylline 20 uM
[2] = input ligand: tryptophan 2.4 mM
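Also: bound reporter read as fluorescence of individual clusters on recovered sequencing chips by microscopy, with normalized cluster intensities fitted with a binding model.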

| Sequence | apparent KD of K4 kissing-loop reporter (input ligand: FMN 200 uM) [nM] | apparent KD of K4 kissing-loop reporter (input ligand: arginine 13.2 mM) [nM] | apparent KD of K4 kissing-loop reporter (input ligand: none) [nM] | apparent KD of K4 kissing-loop reporter [1] [nM] | apparent KD of K4 kissing-loop reporter [2] [nM] |
| --- | --- | --- | --- | --- | --- |
| UGUCAUUGGUCGGCCGCCACUUGAAGGUCAAAGACCAUAGAGUGAUGUUCUAAGACGAAAGUCACGAGGACCGGGACCGAUGACU [TrypBS 4 #SwitchBubble #K4Middle] | 57.7 | 195 | 114 | 351 | 1130 |
| AAGAGCUAGGCGGCCGCCACUAGAUGUGAACACAUACAAGCCAGUGAUGUUGGUAUGAUGGACGGUAGGACCGGGCCUAGCUGAA [Exclusion - Tryptophan B (Freestyle 12)] | 290 | 464 | 394 | 381 | 294 |
| GCUACUGCUGAAGGAUAUAUCAAUAGAGUGAUGUUCUAUGUCGGUAGCCCGAAAGGGCUACCGACGGUAGAAGGUCAGCAGUAGC | 182 | 1090 | 1560 | 1120 | 960 |
| CGCAGUGAUGUUGCGAAUAUAAUGCAUUCAGAGGAUAUUCGUUUGGGAAGAAGGCUGAAUCGUUCUUCGAGUGAUGUUCGAGGAA [Same State FMN A GF 17] | 141 | 133 | 154 | 136 | 132 |
| UGACUGGACUGAAGGAGCGCUGAACUCCUAGUGAUGUUAGGAUAACGAGACAAAGUCUCGCGGCAGGUAGGUCGCAGUCUAGUCU | 122 | 93.3 | 109 | 99.3 | 106 |
| GAUAAUAGAAUAGAUACCAGUCAAGACCUAGUGAUGUUAGGGAGAUAAGUAGAAUGAAUUGGCCCUUGGCAGCUAUAAUAGUAGG [Default title] | 92.4 | 106 | 80.5 | 129 | 73.4 |
| CUCAAGUGAGGAUUUCGACAUCAAGAUGUGAAGGAUAUGUUACCAAACAGAAGGUCACGAUGUCAUCUAUGAGUGAUGUUCAGGA [theeternabot_sameState_KL_FMN_A_31] | 208 | 130 | 208 | 186 | 181 |
| UUGUUUUACUGAAGGAGCGGCAAUUGAUACGUAGAUAUAGUGAUGUUAUAUAAGAUAGAGAGCCAGGUAGGUCGCAGAGGUGUUU [ExArgB.S] | 176 | 150 | 210 | 180 | 168 |
| UUUUUUAAGAUGUCGACCAACCCGAAGCUACGAGGACCGGUACGGCCGCCACUCGCCAGUGAUGUUGGCGACUGGUGAAACCAUG [Ceesaror] | 133 | 97.8 | 110 | 103 | 227 |
| AAGUGCCUCAAGAGGCAGUAUCUGCCUCAACGAGGACCGGUACGGCCGCCACUCGAAUAAUAGAGUGAUGUUCUAAGAGGCACAA [AK1.5 SS Tryptophan A] | 461 | 284 | 483 | 261 | 432 |
| UAUAUAGUGACGGCCGCCACUAUAUUAAUGUUUUUGUUAGAGUGAUGUUUUGUUUUAUAUUUUUAUAGGACCGGGUUAUAUGUUA [klppxmullin] | 497 | 377 | 626 | 480 | 404 |
| AAUAAAAUCACGGCCGCCACUGAAUAAUUGUUAAGUAGUGAUGUUACUUUACUUUUCUUAGUUAACAGGACCGGGUGAAUAUUUA [#18 K4 Tryptophan B Exclusion] | 113 | 101 | 107 | 101 | 190 |
| GUUACGCAUGGAAGGAGCGCAUGCUCAGCUAUAAGCUCAGUGAUGUUGAGCAUUUUUUUUUUGCAGGUAGGUCGCCAUGUGUAAC [Ex Arginine B K4 30] | 172 | 188 | 218 | 191 | 170 |
| UAAAUAAUAAAACGAGUGAUGUUCGACGAUACCAGCCUCGAUAGAGGCCCUUGGCAGCGUAUGUGAUCACUAAGCCAAGGAAUAA [#02 K4 Theophylline A Exclusion] | 164 | 175 | 167 | 196 | 132 |
| ACAGAGGUAACCUGCAGUGAUGUUGCGGAUACCAGCUCACGAAACAGCCCUUGGCAGCCGCCGUCACUAACACGGUGGAUACAGU [theeternabot_exclusion_KL_Theo_A_49] | 257 | 168 | 230 | 178 | 181 |
| GGAUAGGACAGAGGAUAUGGAGAGUCUACAAAGUAGGCUCAUAAUCCUUGAAUGGAAGUGAUGUUUCUAGAAGGCUGUCCUAUCG [FmnBX 18 - #SwitchBubble #StaticStem #Palindromic] | 758 | 135 | 143 | 148 | 136 |
| UGACUGGACUGAAGGAGCGAGCGAGACAAAGUCUCGAAUUUUCAGUGAUGUUGAUAUAUAACUCAGGUAGGUCGCAGUCUAGUCU [ArgBS 8 #SwitchBubble #StaticStem] | 395 | 423 | 543 | 438 | 441 |
| GGAUAGGACAGAGGAUAUGGUGCUAGGCAAGAAUAACUUGUCUAGCAAUCCAUGAGGAGUGAUGUUCCAGAAGGCUGUCCUAUCG [FmnBX 3 - #SwitchBubble #StraticStem #DoubleMagnetSystem] | 440 | 132 | 137 | 136 | 118 |
| GUUAUGGACCUGGAUACCAGCUGGUACUAAGUGGGAAAAUGAAAGUGAUGUUUUCGUGCUAGCCCUUGGCAGCCAGCAACCCGCA [XTheo-B6] | 120 | 124 | 121 | 133 | 110 |
| GUGCAGUGAUGUUGCACGAGGAAAGACGAUACCAGCCGUAAAUAAGGCCCUUGGCAGCGUAGGCCAGCAUAAAGUAUGCUAGUCU [Oresbelaen] | 120 | 107 | 111 | 89.2 | 99 |
| GCUAGUGCCCGCUCGAAAGAGCGUGUGUGUAAGGAUAUCUAGUAAUAGAGAAGGUACGGAGUGAUGUUCCCACACGGGCACUAGC | 705 | 600 | 800 | 779 | 1060 |
| ACGCGCGCGAGUGAUGUUCGGAGCGGCUGGCAGGAUAUGUAGCAAUGCAGAAGGGUCGUGGCGGCGCGGCCGUAAGGCGGCGCCG [#2 Exclusion - FMN A Attempt #14 (HarryS)] | 173 | 310 | 404 | 535 | 237 |
